Measurements published in patent US7071214B2, “Compounds and compositions for delivering active agents” (Emisphere Technologies, Inc., priority 1997, dated 2006).
Read-outs that look alike come from different tables or passages of the source.

Parameters: species or system Rats
Conditions: rat, in vivo

Row | Compound | Mean peak serum interferon concentration (1 mg/kg) | Mean peak serum interferon concentration (po, 1 mg/kg) | Mean peak serum interferon concentration (50 mg/kg)
1 | interferon | 79±100 | 1951±1857 | –
2 | O=C(O)CCCc1ccc(NC(=O)COc2ccccc2)cc1 [Compound 9, 4-(4-(phenoxyacetyl)aminophenyl)butyric acid] | – | – | 2611±695
